Data taken from patent US20020045192A1, “Arf and HDM2 interaction domains and methods of use thereof” (St. Jude Children's Research Hospital, priority 2001, published 2002).

T1: GFP-p19^Arf (Mus musculus, UniProt Q64364)
T1 construct: expressed in transfected cells; host or cells: NIH 3T3 Arf-/- cells
T1 sequence (Q64364 1-169): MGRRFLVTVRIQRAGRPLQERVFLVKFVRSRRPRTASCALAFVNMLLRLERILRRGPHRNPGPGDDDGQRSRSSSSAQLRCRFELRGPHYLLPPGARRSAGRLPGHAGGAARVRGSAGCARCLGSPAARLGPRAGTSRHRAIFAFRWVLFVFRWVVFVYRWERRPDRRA

T2: mArfN37 (Mus musculus, UniProt Q64364)
T2 construct: An N-terminal fragment of mouse p19^Arf corresponding to residues 1-37 (mArfN37) was purified in a similar manner; made in house
T2 sequence (Q64364 1-37 limits assumed): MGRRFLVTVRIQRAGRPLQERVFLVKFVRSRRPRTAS


Tests used:
GFP-p19^Arf = target: T1, GFP-p19^Arf; assay: Nuclear microinjection and live cell imaging of Texas Red labeled Hdm2 constructs in NIH 3T3 cells lacking Arf; type: cell-based; settings: NIH 3T3 Arf-/- cells, nuclear microinjection
Protocol: Proteins for fluorescence microimaging studies were covalently modified using an amine-reactive, sulfosuccinimidyl ester of Texas Red™ (Molecular Probes, Inc., Cat. # C-1171). In brief, purified Hdm2-derived proteins were dialyzed into 100 mM sodium bicarbonate buffer, pH 8.3 at 2-4 mg/ml. The Texas Red™ dye was dissolved in dimethylsulfoxide at 10 mg/ml. Protein and dye 3:1 (vol:vol) were reacted for 1 hour at room temperature followed by purification using size-exclusion chromatography (NAP 5 G-25 columns, Amersham Pharmacia Biotech, Inc.). Labeled protein bands migrated more slowly than unlabeled protein in SDS-polyacrylamide gels consistent with the covalent attachment of dye.
NIH 3T3 Arf^−/− cells passage 10-15 were cultured in Dulbecco's modified Eagle's medium (Dulbecco's modified Eagle's medium (DMEM); Gibco-Invitrogen, Inc.), 10% fetal bovine serum (FBS) at 37° C., 7% CO2. 24 hours prior to transfection, cells were plated on 35 mm dishes coated with poly-D-Lysine (Mattek, Corp.) at a density of 3×10^4 cells per dish. […] An Axiovert 135 TV inverted fluorescence microscope with an automated stage controller (Carl Zeiss, Inc.) and circulating water bath heater (Fisher) was used for both microinjection and imaging. […]

mArfN37 = target: T2, mArfN37; assay: SPR binding of Hdm2 constructs and Hdm2 peptides to immobilized His-tagged mArfN37; settings: His-mArfN37 captured by covalently linked His antibody
Protocol: Binding studies were performed using a Biacore 3000 surface plasmon resonance (SPR) instrument (Biacore, Inc.). A Tetra-His™ Antibody (Qiagen, Inc.; Cat. #34670) was covalently attached to a carboxymethylated gold surface (C-1 chip; Biacore, Inc.). The carboxymethyl groups on the surface were activated with N-ethyl-N′-(3-dimethylaminopropyl) carbodiimide (EDC) and N-hydroxysuccinimide (NHS) and the antibody was attached at pH 7.4 in 20 mM sodium phosphate buffer, 150 mM NaCl (PBS). Reactive sites remaining on the surface were blocked by reaction with ethanolamine. […] Binding was measured by flowing the non-His-tagged analyte through the reference and ligand-containing flow cells in sequence. […] Changes in the SPR response due to solvent differences and the injection process were monitored by injection of HBS-N buffer alone. […]
It has been previously shown that a fragment of mouse p19^Arf containing the N-terminal 37 amino acids (mArfN37) can (i) bind Hdm2, (ii) cause the relocalization of Hdm2 to nucleoli, and (iii) induce cell cycle arrest in MEFs [see, U.S. patent application Ser. No. 09/480,718, Filed Jan. […] However, because mArfN37 is a relatively small polypeptide, it was determined whether it could bind a correspondingly small segment of Hdm2. […]

| binding to His-tagged mArfN37 immobilized on the SPR biosensor surface (mArfN37) | Molecule | localization of Texas Red labeled Hdm2 construct when GFP-p19^Arf is expressed (GFP-p19^Arf) |
| --- | --- | --- |
| – | Hdm2 277-350: Texas Red labeled Hdm2 deletion construct containing residues 277-350 (protein) QVTVYQAGESDTDSFEEDPEISLADYWKCTSCNEMNPPLPSHCNRCWALRENWLPEDKGKDKGEISEKAKLENS | localized in the nucleoplasm rather than in nucleoli |
| bind tightly | Hdm2 210-275: Fragment of Hdm2 corresponding to residues 210-275 of SEQ ID NO:8 (protein, listed as Homo sapiens) SSSSESTGTPSNPDLDAGVSEHSGDWLDQDSVSDQFSVEFEVESLDSEDYSLSEEGQELSDEDDEV | nucleolar localization |
